Earlier results on one substance are cited in PMC9852560.

The data set has as its target laminin gamma1 (UniProt P02468). In words: SEC. In general terms: Size exclusion chromatography separates by hydrodynamic size, large species first.
Sequence of UniProt P02468 (P02468 34-1607): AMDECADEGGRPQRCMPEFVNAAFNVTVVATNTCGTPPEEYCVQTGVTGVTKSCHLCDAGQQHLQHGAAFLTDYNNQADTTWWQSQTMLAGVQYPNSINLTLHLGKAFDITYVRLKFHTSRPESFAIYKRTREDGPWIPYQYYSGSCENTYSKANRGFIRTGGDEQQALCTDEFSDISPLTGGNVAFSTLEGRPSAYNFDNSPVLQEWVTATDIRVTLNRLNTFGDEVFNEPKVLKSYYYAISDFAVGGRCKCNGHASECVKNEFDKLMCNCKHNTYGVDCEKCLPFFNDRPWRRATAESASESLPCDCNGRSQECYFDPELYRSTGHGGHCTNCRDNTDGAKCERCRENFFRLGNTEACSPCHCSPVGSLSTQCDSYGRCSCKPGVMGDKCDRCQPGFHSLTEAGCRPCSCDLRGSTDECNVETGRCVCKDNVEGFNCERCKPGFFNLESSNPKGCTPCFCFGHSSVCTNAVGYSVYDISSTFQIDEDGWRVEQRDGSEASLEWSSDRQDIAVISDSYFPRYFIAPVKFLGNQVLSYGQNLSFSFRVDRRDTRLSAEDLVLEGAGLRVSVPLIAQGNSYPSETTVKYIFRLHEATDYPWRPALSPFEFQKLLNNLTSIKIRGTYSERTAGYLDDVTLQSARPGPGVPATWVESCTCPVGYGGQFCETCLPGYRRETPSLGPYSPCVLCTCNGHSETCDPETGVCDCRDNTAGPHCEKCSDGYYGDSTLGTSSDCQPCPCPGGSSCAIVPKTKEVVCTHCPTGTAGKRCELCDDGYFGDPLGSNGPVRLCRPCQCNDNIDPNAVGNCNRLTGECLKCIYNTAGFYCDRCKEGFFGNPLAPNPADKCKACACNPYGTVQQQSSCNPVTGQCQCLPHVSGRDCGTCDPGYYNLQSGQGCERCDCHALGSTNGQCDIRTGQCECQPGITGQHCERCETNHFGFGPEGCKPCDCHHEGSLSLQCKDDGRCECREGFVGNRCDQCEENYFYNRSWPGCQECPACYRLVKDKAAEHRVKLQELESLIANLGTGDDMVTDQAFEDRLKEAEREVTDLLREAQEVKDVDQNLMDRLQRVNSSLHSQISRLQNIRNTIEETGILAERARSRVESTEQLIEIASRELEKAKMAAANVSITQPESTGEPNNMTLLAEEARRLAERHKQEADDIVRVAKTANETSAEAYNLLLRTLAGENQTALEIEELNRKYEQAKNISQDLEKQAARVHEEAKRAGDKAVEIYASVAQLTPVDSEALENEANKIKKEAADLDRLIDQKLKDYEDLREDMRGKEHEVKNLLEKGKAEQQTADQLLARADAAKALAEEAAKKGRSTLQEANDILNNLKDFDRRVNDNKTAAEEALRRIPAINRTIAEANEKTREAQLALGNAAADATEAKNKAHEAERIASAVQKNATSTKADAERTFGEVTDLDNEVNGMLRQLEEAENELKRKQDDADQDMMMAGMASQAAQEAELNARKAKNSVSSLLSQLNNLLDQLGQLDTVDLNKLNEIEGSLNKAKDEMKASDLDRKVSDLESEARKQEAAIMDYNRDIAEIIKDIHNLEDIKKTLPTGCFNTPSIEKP

As a reminder, the Kd is the constant that tells how readily two partners part at equilibrium. For the substance laminin beta1 (from UniProt P02469), the dissociation constant Kd was 21 µM.
